Laboratory results as given in the Immune Epitope Database (IEDB).

Tests used:
HLA-A*02:01 [1] = assay: IEDB peptide-MHC binding, purified MHC/direct/fluorescence; filed as Kd, often an IC50 or EC50 that approximates it; ≥ and ≤ were set here for values at or beyond the usual limits of such assays
HLA-A*02:03 = assay: as above
HLA-A*02:12 = assay: as above
HLA-A*02:16 = assay: as above
HLA-A*02:19 = assay: as above
HLA-A*03:01 = assay: as above
HLA-A*26:01 = assay: as above
HLA-A*69:01 = assay: as above
HLA-B*15:01 = assay: as above
HLA-B*18:01 = assay: as above
HLA-B*27:03 = assay: as above
HLA-B*39:01 = assay: as above
HLA-B*46:01 = assay: as above
HLA-B*51:01 = assay: as above
HLA-B*57:01 = assay: as above
HLA-A*02:11 = assay: as above
HLA-A*24:03 = assay: as above
HLA-A*29:02 = assay: as above; conditions: source organism: Entamoeba histolytica HM-1:IMSS
HLA-B*15:17 = assay: as above
HLA-A*26:02 = assay: IEDB peptide-MHC binding, purified MHC/competitive/fluorescence; filed as Kd, often an IC50 or EC50 that approximates it; ≥ and ≤ were set here for values at or beyond the usual limits of such assays; conditions: source organism: Hantaan virus 76-118
HLA-C*08:02 = assay: IEDB peptide-MHC binding, purified MHC/direct/fluorescence; filed as Kd, often an IC50 or EC50 that approximates it; ≥ and ≤ were set here for values at or beyond the usual limits of such assays
HLA-A*02:01 [2] = assay: IEDB peptide-MHC binding, purified MHC/competitive/fluorescence; filed as Kd, often an IC50 or EC50 that approximates it; ≥ and ≤ were set here for values at or beyond the usual limits of such assays; conditions: source organism: Yersinia pestis Nepal516
HLA-B*35:01 = assay: as above; conditions: source organism: Yersinia pestis Nepal516
HLA-A*80:01 = assay: IEDB peptide-MHC binding, purified MHC/direct/fluorescence; filed as Kd, often an IC50 or EC50 that approximates it; ≥ and ≤ were set here for values at or beyond the usual limits of such assays; conditions: source organism: Yellow fever virus
HLA-A*24:02 = assay: IEDB peptide-MHC binding, purified MHC/competitive/fluorescence; filed as Kd, often an IC50 or EC50 that approximates it; ≥ and ≤ were set here for values at or beyond the usual limits of such assays
HLA-A*01:01 = assay: IEDB peptide-MHC binding, purified MHC/direct/fluorescence; filed as Kd, often an IC50 or EC50 that approximates it; ≥ and ≤ were set here for values at or beyond the usual limits of such assays; conditions: source organism: Giardia lamblia ATCC 50803
HLA-A*11:01 = assay: as above; conditions: source organism: Giardia lamblia ATCC 50803
HLA-A*31:01 = assay: as above; conditions: source organism: Giardia lamblia ATCC 50803
HLA-B*07:02 = assay: as above; conditions: source organism: Giardia lamblia ATCC 50803
HLA-B*08:01 = assay: as above; conditions: source organism: Giardia lamblia ATCC 50803
HLA-B*08:02 = assay: as above; conditions: source organism: Giardia lamblia ATCC 50803
HLA-B*27:05 = assay: as above; conditions: source organism: Giardia lamblia ATCC 50803
HLA-B*38:01 = assay: as above; conditions: source organism: Giardia lamblia ATCC 50803
HLA-B*40:01 = assay: as above; conditions: source organism: Giardia lamblia ATCC 50803
HLA-B*48:01 = assay: as above; conditions: source organism: Giardia lamblia ATCC 50803
HLA-B*58:01 = assay: as above; conditions: source organism: Giardia lamblia ATCC 50803
HLA-C*07:02 = assay: as above; conditions: source organism: Listeria monocytogenes EGD-e
HLA-C*14:02 = assay: as above; conditions: source organism: Listeria monocytogenes EGD-e
HLA-C*15:02 = assay: as above; conditions: source organism: Listeria monocytogenes EGD-e
HLA-A*68:02 = assay: as above; conditions: source organism: Crocodilepox virus
[3] = source organism: Brucella suis 1330
[4] = source organism: Entamoeba histolytica HM-1:IMSS
[5] = source organism: Yellow fever virus
[6] = source organism: Giardia lamblia ATCC 50803
[7] = source organism: Listeria monocytogenes EGD-e
[8] = source organism: Crocodilepox virus

DPPEPLVRI
Kd (HLA-A*02:01 [1]; [3]): ≥ 20 µM
Kd (HLA-A*02:03; [3]): ≥ 20 µM
Kd (HLA-A*02:12; [3]): ≥ 20 µM
Kd (HLA-A*02:16; [3]): ≥ 20 µM
Kd (HLA-A*02:19; [3]): ≥ 20 µM
Kd (HLA-A*03:01; [3]): ≥ 20 µM
Kd (HLA-A*26:01; [3]): ≥ 20 µM
Kd (HLA-A*69:01; [3]): ≥ 20 µM
Kd (HLA-B*15:01; [3]): ≥ 20 µM
Kd (HLA-B*18:01; [3]): ≥ 20 µM
Kd (HLA-B*27:03; [3]): ≥ 20 µM
Kd (HLA-B*39:01; [3]): ≥ 20 µM
Kd (HLA-B*46:01; [3]): ≥ 20 µM
Kd (HLA-B*51:01; [3]): 1.87 µM
Kd (HLA-B*57:01; [3]): ≥ 20 µM

DSFAKQPQW
Kd (HLA-A*02:01 [1]; [4]): ≥ 20 µM
Kd (HLA-A*02:03; [4]): ≥ 20 µM
Kd (HLA-A*02:11; [4]): ≥ 20 µM
Kd (HLA-A*02:12; [4]): ≥ 20 µM
Kd (HLA-A*02:16; [4]): ≥ 20 µM
Kd (HLA-A*02:19; [4]): ≥ 20 µM
Kd (HLA-A*03:01; [4]): ≥ 20 µM
Kd (HLA-A*24:03; [4]): ≥ 20 µM
Kd (HLA-A*26:01; [4]): ≥ 20 µM
Kd (HLA-A*29:02): ≥ 20 µM
Kd (HLA-A*69:01; [4]): ≥ 20 µM
Kd (HLA-B*15:01; [4]): ≥ 20 µM
Kd (HLA-B*15:17; [4]): 0.204 µM
Kd (HLA-B*27:03; [4]): ≥ 20 µM
Kd (HLA-B*39:01; [4]): ≥ 20 µM
Kd (HLA-B*46:01; [4]): ≥ 20 µM

ETYKELKAH
Kd (HLA-A*26:01; source organism: Orthohantavirus hantanense): 0.25 µM
Kd (HLA-A*26:02): 0.0118 µM

FVADYLARF
Kd (HLA-C*08:02; source organism: Yersinia pestis Nepal516): 2.77 µM
Kd (HLA-A*02:01 [2]): 0.082 µM
Kd (HLA-B*35:01): 0.0033 µM

GTGDSRLTY
Kd (HLA-A*02:01 [1]; [5]): ≥ 20 µM
Kd (HLA-A*69:01; [5]): ≥ 20 µM
Kd (HLA-A*80:01): 0.2 µM

GVEGIGLQY
Kd (HLA-A*80:01): 0.338 µM

LYKKLKREITF
Kd (HLA-A*24:02; source organism: Influenza A virus (A/goose/Hong Kong/437-6/1999(H5N1))): 0.0051 µM

QPWTPVSSF
Kd (HLA-A*01:01): ≥ 20 µM
Kd (HLA-A*02:01 [1]; [6]): ≥ 20 µM
Kd (HLA-A*03:01; [6]): ≥ 20 µM
Kd (HLA-A*11:01): ≥ 20 µM
Kd (HLA-A*26:01; [6]): ≥ 20 µM
Kd (HLA-A*31:01): ≥ 20 µM
Kd (HLA-A*69:01; [6]): ≥ 20 µM
Kd (HLA-B*07:02): 0.134 µM
Kd (HLA-B*08:01): ≥ 20 µM
Kd (HLA-B*08:02): ≥ 20 µM
Kd (HLA-B*15:01; [6]): ≥ 20 µM
Kd (HLA-B*15:17; [6]): 2.62 µM
Kd (HLA-B*18:01; [6]): 2.44 µM
Kd (HLA-B*27:05): ≥ 20 µM
Kd (HLA-B*38:01): ≥ 20 µM
Kd (HLA-B*40:01): ≥ 20 µM
Kd (HLA-B*46:01; [6]): ≥ 20 µM
Kd (HLA-B*48:01): ≥ 20 µM
Kd (HLA-B*51:01; [6]): ≥ 20 µM
Kd (HLA-B*57:01; [6]): ≥ 20 µM
Kd (HLA-B*58:01): 19.1 µM

RYGPALSI
Kd (HLA-A*24:02; source organism: Influenza A virus H3N2): ≤ 0.0001 µM

RYPRSVLTF
Kd (HLA-A*24:03; [7]): ≤ 0.001 µM
Kd (HLA-C*07:02): 0.044 µM
Kd (HLA-C*14:02): ≤ 0.001 µM
Kd (HLA-C*15:02): ≥ 20 µM
Kd (HLA-A*24:02; [7]): ≤ 0.0001 µM

STAPTGSWF
Kd (HLA-C*08:02; source organism: human gammaherpesvirus 4): ≥ 20 µM

SWFNSFLTHAL
Kd (HLA-A*24:02; source organism: Influenza A virus (A/X-31(H3N2))): 0.15 µM

VVARLGVPY
Kd (HLA-A*02:01 [1]; [8]): ≥ 20 µM
Kd (HLA-A*02:03; [8]): ≥ 20 µM
Kd (HLA-A*02:11; [8]): ≥ 20 µM
Kd (HLA-A*02:12; [8]): ≥ 20 µM
Kd (HLA-A*02:16; [8]): ≥ 20 µM
Kd (HLA-A*02:19; [8]): ≥ 20 µM
Kd (HLA-A*03:01; [8]): ≥ 20 µM
Kd (HLA-A*24:03; [8]): ≥ 20 µM
Kd (HLA-A*26:01; [8]): ≥ 20 µM
Kd (HLA-A*68:02): ≥ 20 µM
Kd (HLA-B*27:03; [8]): ≥ 20 µM
Kd (HLA-B*39:01; [8]): ≥ 20 µM
Kd (HLA-B*51:01; [8]): ≥ 20 µM
Kd (HLA-B*57:01; [8]): ≥ 20 µM
